Legend:
[1] = target: HER2 on the surface of N87 gastric cancer cells (human) (UniProt P04626); experiment: cell-based or functional assay
[2] = target: HER2 on the surface of N87 gastric cancer cells (human) (UniProt P04626); experiment: flow cytometry on N87 cells, 0.5 nM scFv detected with AL1-RFP

MFI [2]: 495
B1: 2835-28 source scFv (scFv, V domains shown, not shown: large carriers)
VH: EVQLVESGGGLVQPGGSLRLSCKASGYTFTDGSMHWVRQAPGKGLEWVAYINPYFGDTYYADSVKGRFTISADTSKNTAYLQMNSLRAEDTAVYYCARGWIDYWGQGTLVTVSS
VL: DIQMTQSPSSLSASVGDRVTITCKSNQNLLLSNGRTFLYWYQQKPGKAPKLLIYGTSYLYSGVPSRFSGSGSGTDFTLTISSLQPEDFATYYCFQANHLPWTFGQGTKVEIKR
modifications: VL-linker-VH scFv; linker and E-tag not given
% cell viability (AL1) [1]: 52.8%
% cell viability (AL2) [1]: 29.9%

From patent US20190085323A1 (published 2019)
